Drawing on the RNAGym collection of RNA variant scans (doi:10.7554/elife.80360), this text covers self-cleavage for 57 variants.

To fix the notation:
B1: Hammerhead Ribozyme (parent)
chain: ACCGGAUGUGCUUUCCGGUCUGAUGAGUCCGUGAGGACGAAACAG

This data set covers variants of B1. Briefly: self-cleavage, relative activity (ratio to wild type); higher = more cleavage; co-transcriptional.
In the case of ACCGUAUGUGAUUUCCGGUCUGAUGAGUCCGUGAGGACGAAACAG [G5U C11A], the self-cleavage amounted to 0.919.

In the case of ACGGGAUGUGCUAUCCGGUCUGAUGAGUCCGUGAGGACGAAACAG [C3G U13A], the self-cleavage was 1.02.

Consider ACCGGAUGUGCUUUCCGGUCUGAUGAGUCCGUGAGGAGGAAACCG [C38G A44C], for which the self-cleavage is 0.508.

As for ACCGGAUGUGCUUUCCGGUCUGAUGAGUCCGUGUGGACGAUACAG [A34U A41U], the self-cleavage worked out at 0.281.

With ACCGAAUGUGCUUUCCGGUCUGAUGAGUCCGUGAGGACGAACCAG [G5A A42C], the self-cleavage was 0.359.

As for ACCGGAUGUGCUUUCCGGUCUGAUGAGUCCGUGAGGACGAAACCU [A44C G45U], the self-cleavage came to 0.721.

In the case of ACCGGAUGUGCUUUCCGGUCUGAUGAGUCCGUGAGGACUACACAG [G39U A41C], the self-cleavage was 0.368.

In the case of ACAGGAUGUGCUUUUCGGUCUGAUGAGUCCGUGAGGACGAAACAG [C3A C15U], the self-cleavage came out at 0.518.

With ACCGGAUGUGCUUUCCGCUCUGAUGAGUCCGUGAGGACGAAACUG [G18C A44U], the self-cleavage was 0.354.

Turning to ACCGGAUGUGCUUUCCGGUCUGAUGAGUCCGUGAGGAUGAAACCG [C38U A44C], the self-cleavage worked out at 0.596.

On to ACCGGAUGUGCUUACGGGUCUGAUGAGUCCGUGAGGACGAAACAG [U14A C16G], for which the self-cleavage turned out to be 0.403.

As to ACCGGAUAUGCUUUCCGGUCUGAUGAGUCCGUAAGGACGAAACAG [G8A G33A], the self-cleavage amounted to 0.9.

Regarding ACCGGAUGCGCUUUCCGGUCUGAUGAGUCGGUGAGGACGAAACAG [U9C C30G], the self-cleavage worked out at 0.955.

As for AACGGAUGUGCUUUCCGGUCUGAUGAGUCCGCGAGGACGAAACAG [C2A U32C], the self-cleavage worked out at 0.632.

Consider ACCGGAUGUGCGUUCCGGUCUGAUGAGUCCGUGAGGACAAAACAG [U12G G39A], for which the self-cleavage amounted to 0.4.

As for ACCGGAUGUGGUUUCCGGUCUGAUGAGUACGUGAGGACGAAACAG [C11G C29A], the self-cleavage amounted to 0.786.

With ACCGGAUGUGCUUUCCGGUCUGUUGAGUCCGUGAGGACGAAAUAG [A23U C43U], the self-cleavage turned out to be 0.433.

In the case of ACCGGAUGUGCUUUCCGGUCUGGUGAGUCCGUGAGGACGAUACAG [A23G A41U], the self-cleavage is 0.298.

In the case of ACCGGAAGUGCUUUCCGGUCUGAUGAGUCCGUGAGGACCAAACAG [U7A G39C], the self-cleavage worked out at 0.321.

As for ACCGGAUGUGCUUUCCGGUCUGAUGAGUCUGUGAGGACGAAACAC [C30U G45C], the self-cleavage amounted to 1.05.

ACCGGAUGUGCUUUCCGGUCUGAUCAGUCCGUGAGGACCAAACAG [G25C G39C]: the self-cleavage was determined as 0.242.

On to ACCGGAUGUGCUUUCCGUUCUGAUGAGUCCGUGAGGACGAGACAG [G18U A41G], for which the self-cleavage was determined as 0.375.

Regarding ACCGGAUGUGCUUGCCGGUCUGAGGAGUCCGUGAGGACGAAACAG [U14G U24G], the self-cleavage is 0.575.

Take ACCGGAGGUGCUUUCCGGUCGGAUGAGUCCGUGAGGACGAAACAG [U7G U21G]: the self-cleavage is 0.426.

With ACCGGAUGUGCUUUCCGGUCUGAUGAGCCCGUGAGGACGAAACAA [U28C G45A], the self-cleavage is 0.628.

For AGCGGAUGUGCUUUCCGGUCUGAUGAGUCCGGGAGGACGAAACAG [C2G U32G], the self-cleavage was determined as 0.379.

As for ACCGGAUGUGUUUUCCGGUCUGAUGAGUCCGUGAGGACGAUACAG [C11U A41U], the self-cleavage stood at 0.278.

Regarding ACCGGAUGUGCCUUCCGGUCUUAUGAGUCCGUGAGGACGAAACAG [U12C G22U], the self-cleavage stood at 0.36.

On to UCCGGACGUGCUUUCCGGUCUGAUGAGUCCGUGAGGACGAAACAG [A1U U7C], for which the self-cleavage is 0.555.

Turning to AUCGGAUGUGCUUUCCGGUCUGAUGAGGCCGUGAGGACGAAACAG [C2U U28G], the self-cleavage is 0.7.

With ACCGGGUGUGCUUUCCGGUCUGAUGAGUCCGUGAGGACGAAACAG [A6G], the self-cleavage was determined as 0.806.

In the case of ACCGGAUGUGCUUUCCGGUCUGAUGAGUCCGUGAGGACGAAGCCG [A42G A44C], the self-cleavage was found to be 0.484.

Take ACCGGAUGUGCUUUCCAGUGUGAUGAGUCCGUGAGGACGAAACAG [G17A C20G]: the self-cleavage came to 0.367.

For ACCGCAUGUGCUUUCCGGUCUGAUGAAUCCGUGAGGACGAAACAG [G5C G27A], the self-cleavage amounted to 0.351.

As for ACCGGAUGUUCUUUCGGGUCUGAUGAGUCCGUGAGGACGAAACAG [G10U C16G], the self-cleavage was 1.01.

Turning to ACCCGAUGUGCUUUCCGCUCUGAUGAGUCCGUGAGGACGAAACAG [G4C G18C], the self-cleavage is 0.251.

Take ACCGGUUGUGCUUUCCGGUCUGAUGAGUCCGUGAGGACGAAACGG [A6U A44G]: the self-cleavage worked out at 1.12.

Turning to ACCGUAUGUGCUUUCCGGUCUGAUGAGUCCGUGAGGACGAAACAU [G5U G45U], the self-cleavage was 0.529.

Turning to ACCGGAUGUGCUUUCCGGUCUGAUGAGUACGUGAGCACGAAACAG [C29A G36C], the self-cleavage is 0.718.

On to ACCGGAUGUGCUUUCCGGUCUGAUGAGUCCGUGACGACGAAUCAG [G35C A42U], for which the self-cleavage came out at 0.324.

As for ACCGGAUGUGCUUUCCGGUCUGACGAGUCCGUGAGGAUGAAACAG [U24C C38U], the self-cleavage was 0.901.

Take ACCGGAUGUGCUUUCCGGUCUGAUGAAUCCGUGAGGAUGAAACAG [G27A C38U]: the self-cleavage amounted to 0.965.

On to ACCGGAUGUGCUUUCCGGUCUGAUGAGUCCGUGAGGAUGAAGCAG [C38U A42G], for which the self-cleavage was found to be 0.34.

For ACCGGAUGUGCUUUCCGGCCUGAUGAGUCCAUGAGGACGAAACAG [U19C G31A], the self-cleavage stood at 0.967.

ACCGGAUGUGCUUUCCGGUCUGAUGAGUCCGUGAGUACGAAACAG [G36U]: the self-cleavage amounted to 0.625.

In the case of ACCGGAUGUGCUUUCCGGUCUGAUGAGUCCGUGAGGAAGAAGCAG [C38A A42G], the self-cleavage worked out at 0.263.

Take ACAGGAUGUGCAUUCCGGUCUGAUGAGUCCGUGAGGACGAAACAG [C3A U12A]: the self-cleavage came out at 0.836.

As for ACCGGAUGUGCUUUCCGGUCUCAUGAGUCCGUGUGGACGAAACAG [G22C A34U], the self-cleavage was found to be 0.318.

In the case of ACCGGAUGUGCUUUCCGGUAUGAUGAGUCGGUGAGGACGAAACAG [C20A C30G], the self-cleavage is 0.353.

With ACCGGAUGUGCUUUCCGCUCUGAUGAGUCCGUCAGGACGAAACAG [G18C G33C], the self-cleavage worked out at 0.616.

As to ACCUGAUGUGCUUUCCGGUCUGAUGAGUCCGUUAGGACGAAACAG [G4U G33U], the self-cleavage was 0.576.

On to ACCGGAUGUGCUCUCCGGUCUGAUGAGUCCGUGUGGACGAAACAG [U13C A34U], for which the self-cleavage is 1.12.

For the variant ACCGGAUGUGCUUUCCGGGCUGAUGAGUCCGUGAGGGCGAAACAG [U19G A37G], the self-cleavage turned out to be 0.3.

In the case of ACCGGAUGUGCUAUCCGGUCUGAUGAGUCCAUGAGGACGAAACAG [U13A G31A], the self-cleavage was found to be 1.46.

In the case of ACCGGUUGUGCUUUCCGGUAUGAUGAGUCCGUGAGGACGAAACAG [A6U C20A], the self-cleavage worked out at 0.373.

Take ACCUGAUGUGCUUUCCGGUCUGAUGAGUCCGUGAGGAGGAAACAG [G4U C38G]: the self-cleavage turned out to be 0.323.

In the case of ACCGGAUGUCCUUUCCGGUCUGAUGAGUCCGUGAGGACGAAACAA [G10C G45A], the self-cleavage turned out to be 0.996.
